The nature of the data set: soluble fraction after stress (log2 fold change); higher = more stays soluble; pooled small domains, quantitative proteomics. The conditions noted are these: stress: 50 degC. In a few lines:
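Custom libraries of small protein domains were pooled and measured in a high-throughput format, with quantitative proteomics as the read-out. Each library was stressed at 50°C. The value is the log2 fold change in the amount of each protein that stays soluble after stress, used as a measure of aggregation propensity; higher values mean more of the protein stays soluble.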
Regarding “HMGTSSAEIAAELRAQIFAGELRPGEMLPSAREITGTWNVAIATASRVHALLRSEGLATPVPGVGTVVAT”, the “soluble fraction (log2)” value stood at 0.0105.
Consider “HMDEFTIILEDAGSQKIAVIKEVRVLNSSLGLKEAKDLVDATPATIMEKADKATADKAKAAFEAAGAKVTI”, for which the “soluble fraction (log2)” value is -0.22.
Regarding “HMAYSEEERNLIRSRLKDVAAALFKEKGIRDTNIDEIYTPVGISKTFFYSFFPSKAVLAIAIMK”, the “soluble fraction (log2)” value was 0.0382.
In the case of “HMDQPLIEPLSERELEVLSLIAAGYSNAEIAERLVIAVGTVKRHINNLYGKLGAGSRTQALAIAREIGLM” it was 0.0589; in that of “HMVYVPTKAEVSQQFQDASKARFDERYAIVELADGRRTMAPLAFLTKADHAWLKQLASTSPLPKGK”, 0.0196; in that of “HMPSKTFYNLSQEKQQKIIDASEKEFSNNLYQDVSLNQIIKNSNISRGSFYMYFTDKEDLYFYLLNEY”, 0.275.
For “HMAYVDWYENKQPTHEEAFKKLLGRIHPGAIVLLHSTSKTNGEILDELLTKWEEMGYRFGTLDELTGN”, the “soluble fraction (log2)” value is -1.18.
In the case of “HMGDLVFDFVHGVHKAAEVEKELVMQALRFTHGNVSRAARLIGMQRSSLRYRIERYRLDAFVMEVAN”, the “soluble fraction (log2)” value came to 0.3.
In the case of “HMRSTIYEFTVPPGQLESIRLDVYITSFVENATRSKVQEAIKQGYVWVNGKHEKASYTMLPGDKIYIELPI” it was -1.79; in that of “HMNNQVTFSKFLNEVEDGRVVEVNIQGNNITGVLSDGSKFKTFSPNYPNLVEKLSEKGVSINASPL”, 0.1.
Turning to “HMPDLKIGKDHRLAEYIETKIAEDGYSPGAVLGEIKAKGLEFETEISKPTLYSYIDKGIFLTITNKELPV”, the “soluble fraction (log2)” value was determined as 0.105.
The result for “HMDDVIEVEGKVVEVLPNTKFIVELANSHKITAHISGKLRMNYIRIMKGDNVTVEMSPYDLTKGRIIWRS” reads -0.00397; that for “HMIEGETPEQTMERVSKDPEIVQILQDPVMQGILAQARENPAALQDHMKNPEVYKKINMLIAAGVIRT”, 0.0669.
The result for “HMNGIFEYSDAKKVPSLVEIENAYRRARVNGAEKFAVIINGEYFGYNPQKRGIYKLNDGEYQIL” reads -0.0706.
The result for “HMFDGNIKIVEDAFSVTIVARGTEVKISGDPENVYLASKTVEGLLTLIDKGEAITDQRVHYVIGLVREG” reads -2.65.
In the case of “HMVSDISTQYQKIINEALDKQPEVKLADIVTMIKEQTSNKVQNGIVENVAKQMNGIEIIKIGQAKGVRRTT”, the “soluble fraction (log2)” value came out at 0.116.
On to “HMAAPELLTVRERQVAALISDGLSNQQIAHRLHLEVTTVKAHIGSIFNRLDMNNRVQIAIWAHDRQLVFS”, for which the “soluble fraction (log2)” value was -0.266.
Take “HMGQLVYPAGVYDVNKSYITDSNSAPYVLDKTDNNYYVLNTQMTWKGTEQDNKTPSQSYEESGGSVWLLFD”: the “soluble fraction (log2)” value was -0.235.
For the sequence “HMEGTEILVNIRKGMTKEEIASLLVSKGLVEDKNTFLVQTALYTSDRYPIQPGSYTLNTAQTPEEMLAVMT”, the “soluble fraction (log2)” value came to 0.0128.
The result for “HMSKPILSFVDPEKDPSHYVKRYITEETYKDWFSEHFPDYTLYEGIGITQEEYRNIVNELTKP” reads -0.493; that for “HMLKRLTVEFSAEMPKKMTSEQKEELASVLSEDPRPAYQNDENREYGLDYGEFSVKFKVKDGVLTVTSVTE”, -0.0668; that for “HMTVGEKIQYYRKKIGLSQEELGQKMLLSRQTISLWEMDKTLPTVDNLLRLKEIFSVSIDELLSENEPK”, 0.013.
Regarding “HMSIYDAPIEDLKFSTRIFNSLKRADIHTVADLIAHSRDDLMKVRNLGATSLDELIEKLGTHGLQLADP”, the “soluble fraction (log2)” value was -0.254.
As to “HMRMTKPLPFDLAAFRNEFGFTKSIIMQEVGVSRHIYDNVERTNATPPEFYDDFVSFFQRHGQ”, the “soluble fraction (log2)” value was -1.04.
In the case of “HMLEEIDYPEEQLQLLFAWSRDHVQSTPPGLPVVDDHVWHILVRGYGATDQRTEAFALLASYAGFP” it was -0.0919; in that of “HMSIQDLMNSKDLSGFKVEMLSNEDIVKYKSMLQSSGFSESQAEQLALQRGLPTSELIKLRTRISDVAVT”, 0.0344; in that of “HMGLDMSLEREQHRALREASQWYARLADEQVDSDAERAWRHWVAADEANQRAWQYIEAVSQRFDG”, -0.315.
In the case of “HMKVNMIIVMKPGARETDIQEVSNVLKSAGLGVHISKGTERTIIGVIGDKRLLNGIPLDLMHGVDKLVPIM” it was 0.0193; in that of “HMGGFNATTLQNIEELRRSLSDADQFGRHEVIETIGGSDSRAGKLLKKMLEAGIIEQVKGHGKGRYRFKRT”, -0.0136; in that of “HMTIKNHIDEILKKEPFILENIKNGLINISALARQIEPQLSRKVGKKLNVNAIIMTIKRMEIDQLNK”, -0.989.
In the case of “HMRAPEIEAARSDLDVGQTVQIVRHLHGNQYEVFYRGAQWQAEAVGSSGANDAQTAVITGKNGNILLIQI” it was -0.0658; in that of “HMQRSVNYSELHEIKERVFDALYSSPMSMPDLLAWLKGDEEHTISVIRLMQDNGDIEMGEDGRLAVV”, -0.275; in that of “HMLSDHGLNDRQIMVIAGLMNGGTVTVRSIESQYGVSLNTARADVKMLVDAGLLTETGREVNMKVYSWSGK”, -2.
In the case of “HMSVPVDEVLAALTQKLTDLRTQAMAAKDFSAVDALKAALTEAGVEVRMSKTGVELIAGPRVDAKKLGTL”, the “soluble fraction (log2)” value was -0.03.
In the case of “HMKIKKIWFDGDYIYGMDERNNTYRQSLLWYSKLRNASAEERERYTFSTIGIHWRELDEDVSFESF” it was -3.14; in that of “HMDGMRASDMVRAALAGAGKTQKELAEHMGWTPQNLSGRLKNNSLTFDELSKALHFAGYEVSMSDANGAG”, 0.0567; in that of “HMNAKVVAPIPGTVLSIDIKVGDVIKIGDRLLVLEAMKMENNIASEKSGTVTAVHVKVGQQVLQNELMIEL”, -1.39.
“HMSQSLSGWAAKDLEVKSGADASYRTVGRLPKGSKVSGKIINGYLHIEFDGSMRYVPVSGISKTE”: the “soluble fraction (log2)” value was -0.134.
The result for “HMDENMQRYNTMEEIKKEFPYAEDTVRKLIAMGAIRGGGKVDANGDPADMDLSRDMLRMMVFNDRAGAYG” reads 0.544; that for “HMSLPTYVQISEAIARRITAGQWLDGERLPPERTMAAEFGVAVGTLRKALSRLQDQKLLRRLQGSGNYINI”, -1.57; that for “HMGKLYRDRYAPLEPDGARAGDRVFIISLEKEGTLERIDLPRKTATVLLGSSIRSTFPLDDLYQPRG”, 0.0151.
The result for “HMIDFTHEDIERLWNAIVHYVPERQKSDMAIDFIKSLEDIGVEHDEIKASAEYDPKLEEAINTVY” reads -0.352; that for “HMEANPLTDREKEVLELVADGKNTKEIAQELSIKSGTVRNYISMILEKLEVKNRIEAITRSKEKGWF”, 0.144; that for “HMQQLAEQIPTDRPYISIAEAVVLFGISRDTIYRQIRKGNIPAVNLGERLTRISRIHIEAMFPKV”, -0.563.
In the case of “HMATESYYVLKADVPAKTLVTQEMVEEIKVSKGGAPVNSIKIDNIKEKGVYTSIPLLKGDVLSASNTG” it was 0.00692.
For the sequence “HMELNEIEFENLKESIIIHLEKESLSPHELVKHIQTIHPDKVTAVIQWMLENGFIKTDAGGQLTLVSK”, the “soluble fraction (log2)” value amounted to 0.135.
The result for “HMRIDVWLAENGFAPSRQKAQDLIAAGRVFQTDPSGRRQKVSKASAAVDPALSPKIEVIPDPE” reads 0.161; that for “HMNLGDLYVIMEIAGQRDDVSARLMNREGQTFLVKTGTKLKSGDVVKEITPTYIKTDHDGEEAFLYF”, -0.542; that for “HMSKNIRQQFLDVLPKTFDRNQYLETAKKLSINAKTAEGYIKKFVEANLLDHPKHNHYINLKKVEEVETK”, 0.229.
Regarding “HMNIIMLGEFIKEQRIKRKMTQEYLASELGISRPTYSQIELGTRELTIPEARKMAAIFNISLEDFLAEKE”, the “soluble fraction (log2)” value was -0.604.
The result for “HMTKIDYSINQIYSLRNIENITIVLKDKRSFTGKILKIYWQNGSKIILFTTETRNYKFKEYEISEIYKS” reads -0.268.
In the case of “HMSNLKKRRLEKNLTLDDVGKLVGVSAATISRWESGDIENMRSDKIVKLANALEISPAVILGW” it was -0.0215; in that of “HMGKINEIVANNIAILRKKNRLSLEELGKLSGVSKSMLALIEKGDGNPTLGILWKIANGLGVPFDELTRRP”, -0.0928; in that of “HMPPELSDEVMEEAMSYLKNQYLNHGVKLEDYPALNKLFVDEAFRSEVIRKTQSNYKISYQSAMASLD”, 0.0219.
In the case of “HMSQLVTGVLRNLNDISEKIAAGKAVPEMLGRLENMQQMIANLKGNEGLIKSISILTRSAQDALR” it was 0.00825; in that of “HMIGVNMEKSTVEKFANELNLPIDLLLKQLESAGIKKTSGAEELLEADKSALLNYLQIEHGA”, 0.085.
“HMKRSVIVTAERAEVRQKADEGSALVFEAEKNVSLEYLEAAPGGWVKVRHLDGQSGFVRGNQI”: the “soluble fraction (log2)” value was -0.37.
In the case of “HMKNLKPSTEVILKELVKRYPDQTEFRKQQIVDVGQSFGYKGKDYGPIFDADNRVKIGTYDLAGLIVPLQR” it was -0.0461.
The result for “HMLTQEEITRRRGEILTAAMGVILRKGFLETSMREIAEAAGVGKSTLYDYFPSKDEIMIAYVVD” reads -0.938; that for “HMTKNEFLQGLKEELEGRVTHSAIQENIRYYDDYISQEVLKGSTEEEVTESLGGPRIIARTIVDAAYD”, -0.0458; that for “HMEDGRLPPPGTVLRREYKGRAVFVRVLPKGFEFEGEVYRSLSAIAAKVTGSHWNGFRFFGLHE”, -1.54.
“HMALSVRNRMSDLLRMLGDGEFHRFENLFSLEEGRHGIVVTFLAMLELAKEQLVEISQGESLAPIYLKSLA”: the “soluble fraction (log2)” value was -0.716.
“HMNVNALIGQEGIVIKEINSGSNKIGQVKISGDTWSAVTTNDFTNAIPVGSNVKILKIDGVNLIVEPVY”: the “soluble fraction (log2)” value was -0.0724.
In the case of “HMPSGRIRWFDAKKGYGFIAGDDGKDVFLPQTALPQGVRNPRKGAKVEYSVIEGNRGQVAMGVTMV”, the “soluble fraction (log2)” value was -0.0368.
In the case of “HMTPATVVIPKVAGQTVAEAKETLKNANFEIGEEKDESSDTVEEGRVIRTDPESGTNRKEGTKINLIVSS” it was -0.0325; in that of “HMGGKWSMPIIYILSKGKMRFKELERSVEGINTRMLVKELKNMEANGIVTREVFPTVPPTVEYALT”, -0.922; in that of “HMGMFNENLRFLRQKRQMSQQAFASILGIPRTTYSEYEKGNTEPNLKLLIRLSELLDVSLDNLISDDLTHN”, -2.44.
As for “HMTIGKIVNIIEGSYANVRSAPDQNSEPIGRAYPGDAFLVDPLGSSGDWVKVTYEGQSGFIFQAYISV”, the “soluble fraction (log2)” value is -1.29.

The values above are taken from the domain aggregation screens of Martell et al. (2025).
